From patent publication US9803013B2, “Biological materials and uses thereof” (BioInvent International AB, priority 2005, dated 2017) come the findings set out here.

In one experiment the test system is Ramos B lymphoma cells. Description: scFv apoptosis assay (cross-linked, 24 h, Annexin V/PI). In kind it is cell-based, human. The method, then:
Ramos B lymphoma cells were sequentially incubated with anti-Ramos scFv, anti-His mAb, and anti-mouse polyclonal Ab on ice (with intermittent washing to remove excess unbound antibody), and were incubated in a humidified atmosphere of 5% CO2 at 37° C. for 24 hours. Cells were then harvested and subjected to combined staining with Annexin V-AF488 (AV) and propidium iodide (PI). Cells were scored as viable (AV− PI−, filled circles FIG. 2C), early apoptotic (AV+PI−, open triangles FIG. 2C), or late apoptotic/necrotic (AV+PI+, open diamonds FIG. 2C), based on differential positivity for AV and PI staining (defined by square gates in FIG. 2B). […]
Lipopolysaccharide levels of recombinantly produced scFv fragments were reduced using Detoxigel columns according to manufacturer's instructions (Pierce Biotechnology, Rockford, Ill., USA). Remaining endotoxin levels were quantified by the LAL-amebocyte lysate assay (Cambrex Bioscience, Walkersville, Md., USA). […]
Apoptotic cells were, unless otherwise stated, detected by combined staining with Annexin V Alexa Fluor 488 (AV) and Propidium Iodide (PI) (both from Molecular Probes, Invitrogen) and subsequent flow-cytometric analysis, Cells were defined as viable (AV−/PI−), early apoptotic (AV+/PI−) or late apoptotic/necrotic (AV+/PI+). […]

The next experiment deals with Raji B lymphoma cells. The description is as above. In kind it is cell-based, human.

B1: scFv B11: scFv clone isolated by differential biopanning, later converted to B11 IgG1 (protein)
scFv (part 1 of 2): EVQLLESGGGLVQPGGSLRLSCAASGFTFSNAWMSWVRQAPGKGLEWVAFIWYDGSNKYYADSVKGRFTISRDNSKNTLYLQMNSLRAEDTAVYYCARYSGWYFDYWGQGTLVTVSS
scFv (part 2 of 2): QSVLTQPPSASGTPGQRVTISCTGSSSNIGAGYDVHWYQQLPGTAPKLLIYDNNNRPSGVPDRFSGSKSGTSASLAISGLRSEDEADYYCQSYDSSLSAWLFGGGTKLTVLG
modifications: left off: small tags and cut ends
notes: scFv clone isolated by differential biopanning, later converted to B11 IgG1
Turning to B1, the “apoptosis induction by scFv” value in the experiment with Ramos B lymphoma cells and in the experiment with Raji B lymphoma cells was “induced significant apoptosis” each time.
